US20110212084A1 (AstraZeneca / MedImmune, published 2011)

How the values were obtained:
[1] = target: T1, human IgE (source not stated for the assay) (human, UniProt P01854-1 1-428); assay: SPR, BIAcore 2000; IgE amine-coupled to CM5 chip, IgG as analyte, bivalent analyte model; geomean
T1 construct: also called purified human IgE; IgE (Calbiochem or U266-derived)
Experimental: (§1) The binding affinity of purified IgG samples of a representative number of clones to human and cynomolgus IgE was determined by surface plasmon resonance using BIAcore 2000 biosensor (BIAcore AB) essentially as described by Karlsson et al 1991; Journal of Immunological Methods 145 (1-2) 229-240. In brief, purified human or cynomolgus IgE was covalently coupled to the surface of a CM5 sensor chip (BIAcore) using standard amine coupling reagents according to the manufacturer's instructions to provide a surface density of 100 RU. IgG samples prepared in HBS-EP buffer (BIAcore (AB), at a range of concentrations, between 250 nM and 15.6 nM were passed over the sensor chip surface. The surface was regenerated using 10 mM Glycine, pH 1.75 between each injection of antibody. The resulting sensorgrams were evaluated using BIA evaluation 3.1 software and fitted to a bivalent analyte model, to provide relative binding data.

[2] = target: T2, cynomolgus IgE (recombinant chimaeric D12 variable region / cynomolgus IgE constant region) (cynomolgus monkey (constant region)); assay: SPR, BIAcore 2000; cynomolgus IgE amine-coupled to CM5 chip, IgG as analyte, bivalent analyte model; geomean
T2 construct: also called cyno IgE; cynomolgus IgE (in house HEK-EBNA derived)
T2 sequence (heavy, as listed by the source limits assumed, chain 1 of 2): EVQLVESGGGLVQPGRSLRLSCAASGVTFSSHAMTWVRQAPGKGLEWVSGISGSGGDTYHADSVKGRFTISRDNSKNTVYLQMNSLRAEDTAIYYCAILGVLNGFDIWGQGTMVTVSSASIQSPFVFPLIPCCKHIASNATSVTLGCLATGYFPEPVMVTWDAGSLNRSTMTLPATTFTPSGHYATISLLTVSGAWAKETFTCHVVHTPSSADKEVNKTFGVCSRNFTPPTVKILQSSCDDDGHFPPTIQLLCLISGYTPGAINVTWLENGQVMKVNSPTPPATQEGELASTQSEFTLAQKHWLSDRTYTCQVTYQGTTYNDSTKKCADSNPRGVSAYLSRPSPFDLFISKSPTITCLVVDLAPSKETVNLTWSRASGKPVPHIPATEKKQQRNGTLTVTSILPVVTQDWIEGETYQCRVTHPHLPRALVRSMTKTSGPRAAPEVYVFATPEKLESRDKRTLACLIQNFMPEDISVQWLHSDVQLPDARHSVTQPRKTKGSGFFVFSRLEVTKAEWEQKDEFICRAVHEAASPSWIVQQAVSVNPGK
T2 sequence (light, as listed by the source limits assumed, chain 2 of 2): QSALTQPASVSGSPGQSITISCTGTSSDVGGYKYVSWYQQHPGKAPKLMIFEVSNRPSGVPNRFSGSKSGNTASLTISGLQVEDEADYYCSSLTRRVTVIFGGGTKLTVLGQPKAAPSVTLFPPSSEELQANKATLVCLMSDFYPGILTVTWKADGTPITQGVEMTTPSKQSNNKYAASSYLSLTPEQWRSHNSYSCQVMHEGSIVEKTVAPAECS
Experimental: as §1

[3] = target: T3, human IgEλ (U266 derived) (human, UniProt P01854 1-546); assay: flow cytometry competition; IgG titrated, mixed with IgE (U266, 10 µg/mL), IgE binding to CD23 on IL-4 treated IM9 cells
T3 construct: mature; full-length IgE purified from U266 cells (Ikeyama et al. 1986); labelled with europium cryptate in the HTRF assays; also called human IgE (U266-derived)
T3 sequence (P01854 whole entry): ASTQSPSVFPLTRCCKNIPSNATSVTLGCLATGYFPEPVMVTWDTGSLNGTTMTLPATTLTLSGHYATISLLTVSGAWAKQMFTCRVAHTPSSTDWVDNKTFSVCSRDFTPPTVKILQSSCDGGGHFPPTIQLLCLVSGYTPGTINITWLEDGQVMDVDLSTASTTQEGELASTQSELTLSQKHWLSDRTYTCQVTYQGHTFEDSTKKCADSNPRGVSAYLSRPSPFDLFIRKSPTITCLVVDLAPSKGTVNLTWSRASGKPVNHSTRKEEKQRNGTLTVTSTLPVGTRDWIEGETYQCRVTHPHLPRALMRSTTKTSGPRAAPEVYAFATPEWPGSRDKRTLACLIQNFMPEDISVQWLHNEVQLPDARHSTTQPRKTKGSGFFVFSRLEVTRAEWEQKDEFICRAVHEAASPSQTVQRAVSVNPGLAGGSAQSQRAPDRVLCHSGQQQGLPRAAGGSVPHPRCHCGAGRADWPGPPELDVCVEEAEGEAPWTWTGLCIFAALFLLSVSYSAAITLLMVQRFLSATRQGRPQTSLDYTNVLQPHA
Experimental: Some of these optimised antibodies were evaluated for inhibition of the IgE/CD23 interaction using the IM9 binding assay as previously described.
Antibody dilutions (667 nM to 1 nM) were prepared in U-bottomed polypropylene plates (Greiner) and mixed with IgE (U266-derived [Ikeyama et. al. 1986. Molecular Immunology 23 (2); p159-167]) to a final IgE concentration of 10 μg/mL for 30 minutes at room temperature. Cell plates were spun at 2000 rpm for 2 minutes and supernatant was aspirated, leaving the cell pellet intact. Cells were resuspended in 100 μL/well antibody/IgE mix and incubated on ice for 1 hour. Cell plates were centrifuged at 2000 rpm for 2 minutes and antibody/IgE supernatants were aspirated. Cells were washed by resuspending in 200 μL/well of Flow buffer and centrifuging as above.
IgE bound to the cell surface was detected with anti-IgE-phycoerythin (Caltag) diluted 1/30, v/v, 100 μL/well. Assay plates were incubated on ice for 20 minutes in the dark before centrifuging at 2000 rpm for 2 minutes and washing with 2×200 μL of Flow buffer as described above. Cells were resuspended in 100 μL Cell Fix (BD biosciences) and analysed using a FACSCalibur (BD Biosciences) to detect FL2 staining.

[4] = target: T3, human IgEλ (U266 derived); assay: cell-based or functional assay
[5] = target: T2, cynomolgus IgE (recombinant chimaeric …); assay: cell-based or functional assay

T1 sequence (P01854 other isoform, or with tags, fused parts or gaps): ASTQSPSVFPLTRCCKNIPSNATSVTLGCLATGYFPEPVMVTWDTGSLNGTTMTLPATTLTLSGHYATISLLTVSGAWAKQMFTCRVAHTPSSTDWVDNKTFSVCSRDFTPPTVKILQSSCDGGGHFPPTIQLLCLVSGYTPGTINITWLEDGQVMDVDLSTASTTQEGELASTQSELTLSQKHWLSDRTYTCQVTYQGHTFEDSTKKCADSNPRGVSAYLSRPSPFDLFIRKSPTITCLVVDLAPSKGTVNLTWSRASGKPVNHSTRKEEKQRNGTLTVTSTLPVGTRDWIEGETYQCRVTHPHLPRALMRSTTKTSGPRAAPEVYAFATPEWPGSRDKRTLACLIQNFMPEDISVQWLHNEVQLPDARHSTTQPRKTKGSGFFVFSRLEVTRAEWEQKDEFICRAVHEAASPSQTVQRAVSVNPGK

B1: Antibody 33 (IgG) (antibody, V domains shown)
VH: EVQLLESGGGLVQPGGSLSLSCAAPGFTFSSYAMSWVRQAPGKGLEWVSAISGGSGGRTYYADSVKGRFTISKDNSKNTLYLQMNSLRAEDTAVYYCARHIAVAGTRGFDYWGRGTLVTVSS
VL: SYVLTQPPSVSVSPGQTASITCSGDKLGDTYASWYRQRSGLSPALVIYQDDKRPSGIPERFSGSNSGNTATLTISGTHTMDEADYYCLAWDTRTSGAVFGGGTKLTVL
Work on B1 yielded a Kd [1] of 0.8 nM, a Kd [2] of 2.3 nM and an IC50 [3] of 83 nM. The “RBL-ER51 calcium signalling IC50 (nM) Geomean, human IgE 25 ng/ml” value [4] was 0.112 nM and the “RBL-ER51 calcium signalling IC50 (nM) Geomean, cynomolgus IgE 100 ng/ml” value [5] was 5.1 nM.
